Experimental findings from article PMC5493779, “Recognition of a glycosylation substrate by the O-GlcNAc transferase TPR repeats” (Open Biology, 2017) are described below.

Where no end group is shown, it is not given here.

The target in test [1] is T1, human O-GlcNAc transferase, truncated (315-1031), as it stands in the substrate:OGT fusion proteins (human, UniProt O15294-3 315-1031).
T1 construct: human O-GlcNAc transferase (OGT), codon-optimised, residues 315-1031 starting at Thr315; holds TPR repeats and the catalytic domain; In the crystals this stretch is joined on one chain to the substrate peptide (m2 or m3) by a GGG linker; the whole chains are m4 and m5; also called hOGT; source: E. coli BL21 (DE3) pLysS, purified (Ni-NTA, anion exchange, gel filtration) as part of the fusion …
T1 sequence (looked up): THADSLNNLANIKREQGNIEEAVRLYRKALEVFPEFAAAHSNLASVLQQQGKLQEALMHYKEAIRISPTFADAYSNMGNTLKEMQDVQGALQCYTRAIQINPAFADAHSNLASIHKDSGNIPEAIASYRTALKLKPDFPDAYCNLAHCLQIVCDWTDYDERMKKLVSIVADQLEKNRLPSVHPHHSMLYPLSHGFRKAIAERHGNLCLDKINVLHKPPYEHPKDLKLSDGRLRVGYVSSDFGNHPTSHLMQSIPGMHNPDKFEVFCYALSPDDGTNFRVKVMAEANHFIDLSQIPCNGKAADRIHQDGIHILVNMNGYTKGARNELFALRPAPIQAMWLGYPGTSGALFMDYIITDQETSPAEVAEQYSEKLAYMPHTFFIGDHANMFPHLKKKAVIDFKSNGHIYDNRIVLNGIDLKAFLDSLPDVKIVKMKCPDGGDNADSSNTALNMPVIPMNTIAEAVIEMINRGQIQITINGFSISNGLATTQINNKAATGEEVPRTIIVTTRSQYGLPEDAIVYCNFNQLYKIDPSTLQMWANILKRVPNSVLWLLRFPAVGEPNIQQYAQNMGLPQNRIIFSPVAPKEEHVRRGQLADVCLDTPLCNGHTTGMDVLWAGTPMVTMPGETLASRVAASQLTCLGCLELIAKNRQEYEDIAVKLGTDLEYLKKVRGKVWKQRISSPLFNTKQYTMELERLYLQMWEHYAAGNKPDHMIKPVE
Briefly: crystal structure; substrate peptide fused through a 3xGly linker to the N-terminus of OGT 315-1031 (one chain); about 10 mg/ml protein with 5 mM UDP, sitting drop, 0.1 M Tris pH 8.5; one molecule per asymmetric unit. Particulars: both partners purified.

The target in test [2] is T2, His6-hOGT (312-1031), wild type (human) (UniProt O15294).
T2 sequence: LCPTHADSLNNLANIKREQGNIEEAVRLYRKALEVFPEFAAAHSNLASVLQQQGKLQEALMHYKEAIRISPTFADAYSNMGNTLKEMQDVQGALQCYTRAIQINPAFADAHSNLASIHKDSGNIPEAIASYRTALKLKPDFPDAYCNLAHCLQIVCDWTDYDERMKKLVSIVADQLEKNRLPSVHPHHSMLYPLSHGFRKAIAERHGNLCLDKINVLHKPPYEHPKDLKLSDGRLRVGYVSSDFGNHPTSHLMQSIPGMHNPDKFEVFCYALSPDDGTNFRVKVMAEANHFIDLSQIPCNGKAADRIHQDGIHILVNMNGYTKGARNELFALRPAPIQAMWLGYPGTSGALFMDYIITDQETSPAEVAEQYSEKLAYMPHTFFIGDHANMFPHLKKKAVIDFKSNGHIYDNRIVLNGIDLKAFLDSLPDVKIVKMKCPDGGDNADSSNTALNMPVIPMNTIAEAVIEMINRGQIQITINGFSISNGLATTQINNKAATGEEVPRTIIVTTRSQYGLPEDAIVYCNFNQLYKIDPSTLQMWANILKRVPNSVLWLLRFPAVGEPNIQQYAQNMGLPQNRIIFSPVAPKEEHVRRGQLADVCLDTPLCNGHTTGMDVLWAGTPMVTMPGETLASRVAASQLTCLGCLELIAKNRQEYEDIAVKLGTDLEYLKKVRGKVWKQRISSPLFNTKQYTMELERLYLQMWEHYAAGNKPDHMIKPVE

The target in test [3] is His6-hOGT (312-1031) 5N5A quintuple mutant (human) (UniProt O15294).

B1: 18-mer TAB1 peptide derived from the S395 glycosylation site (VPYSSAQSTSKTSVTLSL) (peptide)
peptide: VPYSSAQSTSKTSVTLSL
modifications: also: O-GlcNAc on Ser395
notes: In the crystal its C-terminus is joined by a GGG linker to Thr315 of OGT on one chain; the whole chain is m5; Extra density near Ser396 and Ser399 hints at further glycosylation; also called TAB1 C-terminal domain; source: E. coli BL21 (DE3) pLysS, purified (Ni-NTA, anion exchange, gel filtration) as part of the fusion protein
In the case of B1, in test [1], the binding result was “binds”.

B2: 18-mer HCF1PRO repeat peptide (PPCETHETGTTNTATTAT) (peptide)
peptide: PPCETHETGTTNTATTAT
notes: host cell factor 1 (HCF1), one repeat of the proteolytic processing domain; In the crystal its C-terminus is joined by a GGG linker to Thr315 of OGT on one chain; the whole chain is m4; The PreScission site of the vector was replaced by the peptide and linker; also called HCF1 peptide; host cell factor 1 PPD repeat; source: E. coli BL21 (DE3) pLysS, purified (Ni-NTA, anion exchange, gel …)
Regarding B2, in test [1], the binding result is recorded as “binds”.

As for KKPVSVPYSSAQSTSKTSVTLSL [free TAB1 peptide …], the KM of the TAB1 peptide in steady-state kinetics of O-GlcNAc transfer (50 nM hOGT, 50 µM UDP-GlcNAc, UDP formation by fluorescence) in test [2] came out at 42 µM.

B3: TAB1 (7-409) protein (domain or fragment)
chain: SLLQSEQQPSWTDDLPLCHLSGVGSASNRSYSADGKGTESHPPEDSWLKFRSENNCFLYGVFNGYDGNRVTNFVAQRLSAELLLGQLNAEHAEADVRRVLLQAFDVVERSFLESIDDALAEKASLQSQLPEGVPQHQLPPQYQKILERLKTLEREISGGAMAVVAVLLNNKLYVANVGTNRALLCKSTVDGLQVTQLNVDHTTENEDELFRLSQLGLDAGKIKQVGIICGQESTRRIGDYKVKYGYTDIDLLSAAKSKPIIAEPEIHGAQPLDGVTGFLVLMSEGLYKALEAAHGPGQANQEIAAMIDTEFAKQTSLDAVAQAVVDRVKRIHSDTFASGGERARFCPRHEDMTLLVRNFGYPLGEMSQPTPSPAPAAGGRVYPVSVPYSSAQSTSKTSVTLSL
With B3, the reduction of glycosyltransferase activity on TAB1 (7-409) against WT OGT, western blot with an O-GlcNAc Ser395 specific antibody, quantified in test [3] was found to be 50%.
